From publication doi:10.1101/2024.12.05.626941

Experiments:
Test in all cases: SEC
[1] = target: Zea mays adenosine kinase 2 (ZmADK2) (Zea mays)
[2] = target: Zea mays adenosine kinase 1 (ZmADK1) (Zea mays)
[3] = target: Physcomitrella patens adenosine kinase 2 (PpADK2) (Physcomitrella patens)
[4] = target: Zea mays adenosine kinase 3 (ZmADK3) (Zea mays)

In the case of “Zea mays adenosine kinase 2 (ZmADK2) (enzyme)”, the stoichiometry N [1] is reported as 2.
For “Zea mays adenosine kinase 1 (ZmADK1) (enzyme)”, the stoichiometry N [2] was 2.
“Physcomitrella patens adenosine kinase 2 (PpADK2) (enzyme)” gave a stoichiometry N [3] of 2.
For “Zea mays adenosine kinase 3 (ZmADK3) (enzyme)”, the stoichiometry N [4] was 2.
